The target in this assay is heavy meromyosin-like fragment of myosin Va (MyoV-HMM), with its bound calmodulin (mouse | not stated) (UniProt Q99104).
Chain of heavy meromyosin-like fragment of myosin Va (MyoV-HMM), with its bound calmodulin (mouse | not stated) (Q99104 1-1090): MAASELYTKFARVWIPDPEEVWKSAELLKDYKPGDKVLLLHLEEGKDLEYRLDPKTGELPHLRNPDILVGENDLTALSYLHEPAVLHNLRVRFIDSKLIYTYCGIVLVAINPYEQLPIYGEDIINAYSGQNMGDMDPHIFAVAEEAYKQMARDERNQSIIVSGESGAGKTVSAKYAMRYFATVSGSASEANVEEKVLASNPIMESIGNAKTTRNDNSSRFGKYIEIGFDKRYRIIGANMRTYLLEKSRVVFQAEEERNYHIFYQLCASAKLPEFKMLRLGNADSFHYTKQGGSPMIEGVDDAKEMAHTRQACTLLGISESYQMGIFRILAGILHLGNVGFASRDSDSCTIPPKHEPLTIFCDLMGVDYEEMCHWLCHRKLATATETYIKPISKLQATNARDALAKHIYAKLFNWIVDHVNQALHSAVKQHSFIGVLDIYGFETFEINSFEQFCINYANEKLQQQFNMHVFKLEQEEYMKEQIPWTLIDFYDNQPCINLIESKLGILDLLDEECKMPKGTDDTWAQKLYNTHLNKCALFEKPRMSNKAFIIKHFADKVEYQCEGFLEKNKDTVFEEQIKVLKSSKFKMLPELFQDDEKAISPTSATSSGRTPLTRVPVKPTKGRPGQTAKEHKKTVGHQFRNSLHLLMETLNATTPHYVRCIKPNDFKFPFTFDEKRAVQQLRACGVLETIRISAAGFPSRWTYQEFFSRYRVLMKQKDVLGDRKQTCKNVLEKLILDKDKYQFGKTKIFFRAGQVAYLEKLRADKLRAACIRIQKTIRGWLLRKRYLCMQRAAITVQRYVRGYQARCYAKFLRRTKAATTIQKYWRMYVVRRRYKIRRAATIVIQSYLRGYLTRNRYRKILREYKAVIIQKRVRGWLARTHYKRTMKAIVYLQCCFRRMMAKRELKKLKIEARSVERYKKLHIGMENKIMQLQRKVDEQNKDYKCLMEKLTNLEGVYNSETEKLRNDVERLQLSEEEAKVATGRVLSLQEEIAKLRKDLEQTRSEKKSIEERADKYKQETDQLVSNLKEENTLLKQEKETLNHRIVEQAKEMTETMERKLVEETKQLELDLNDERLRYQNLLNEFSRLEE

As to “Alexa-Fluor-568-labelled calmodulin (from UniProt P62157 1-149) (natural protein)”, the labelled calmodulins exchanged per MyoV-HMM turned out to be 3 per MyoV-HMM.

The values above are taken from PMC2775414.
